Legend:
[1] = test system: GST-NR2F6 fusion protein, full-length, wild-type
[2] = test system: GST-NR2F6 fusion protein, full-length, S83A mutant
[3] = test system: GST-NR2F6 fusion protein, full-length, S89A mutant
Sequence of GST-NR2F6 fusion protein, full-length, S89A mutant (chain, as listed by the source S89A): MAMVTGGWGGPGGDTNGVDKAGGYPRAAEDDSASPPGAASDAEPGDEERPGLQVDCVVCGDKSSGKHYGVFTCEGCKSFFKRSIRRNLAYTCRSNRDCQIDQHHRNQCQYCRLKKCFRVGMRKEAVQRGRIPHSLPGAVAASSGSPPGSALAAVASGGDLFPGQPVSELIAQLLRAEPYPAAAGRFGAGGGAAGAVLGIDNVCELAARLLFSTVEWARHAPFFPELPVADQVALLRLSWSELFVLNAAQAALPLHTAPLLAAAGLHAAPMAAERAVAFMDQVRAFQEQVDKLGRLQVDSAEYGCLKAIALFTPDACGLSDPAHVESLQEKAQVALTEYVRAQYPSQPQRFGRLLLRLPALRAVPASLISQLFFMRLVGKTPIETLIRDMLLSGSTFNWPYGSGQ

Sequence of GST-NR2F6 fusion protein, full-length, S83A mutant (chain, as listed by the source S83A): as the sequence (chain, as listed by the source S89A) above, with S83A, A89S counted along it
Sequence of recombinant PKCtheta (Q04759 whole entry): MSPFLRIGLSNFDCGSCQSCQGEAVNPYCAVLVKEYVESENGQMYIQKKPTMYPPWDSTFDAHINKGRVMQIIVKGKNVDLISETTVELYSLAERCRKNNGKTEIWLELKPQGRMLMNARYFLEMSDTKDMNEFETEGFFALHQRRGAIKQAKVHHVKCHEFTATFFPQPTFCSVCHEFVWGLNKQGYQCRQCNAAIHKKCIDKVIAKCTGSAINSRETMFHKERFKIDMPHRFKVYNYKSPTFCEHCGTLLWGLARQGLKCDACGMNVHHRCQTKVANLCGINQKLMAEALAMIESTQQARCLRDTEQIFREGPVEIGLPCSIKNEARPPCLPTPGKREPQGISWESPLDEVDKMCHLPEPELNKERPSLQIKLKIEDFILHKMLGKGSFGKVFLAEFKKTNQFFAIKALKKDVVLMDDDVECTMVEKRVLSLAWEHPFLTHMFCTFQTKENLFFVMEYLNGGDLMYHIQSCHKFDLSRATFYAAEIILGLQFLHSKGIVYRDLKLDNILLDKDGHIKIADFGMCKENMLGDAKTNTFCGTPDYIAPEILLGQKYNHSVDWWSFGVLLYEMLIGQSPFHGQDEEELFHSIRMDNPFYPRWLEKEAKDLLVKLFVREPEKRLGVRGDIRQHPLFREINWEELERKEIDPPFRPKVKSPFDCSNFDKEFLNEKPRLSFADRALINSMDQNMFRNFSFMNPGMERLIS
Sequence of GST-NR2F6 fusion protein, full-length, wild-type (chain, as listed by the source): as the sequence (chain, as listed by the source S89A) above, with A89S counted along it

Substance	phosphorylation (32P incorporation), in vitro protein kinase assay [1]	phosphorylation (32P incorporation), in vitro protein kinase assay [2]	phosphorylation (32P incorporation), in vitro protein kinase assay [3]
recombinant PKCalpha	PKCalpha, delta and theta (but not PKCzeta or PKA) were able to phosphorylate recombinant NR2F6 in vitro	This phosphorylation was lost after the predicted phosphorylation site at Ser-83 (but not at Ser-89) was mutated in the full-length NR2F6 protein	(but not at Ser-89)
recombinant PKCdelta	PKCalpha, delta and theta (but not PKCzeta or PKA) were able to phosphorylate recombinant NR2F6 in vitro	This phosphorylation was lost after the predicted phosphorylation site at Ser-83 (but not at Ser-89) was mutated in the full-length NR2F6 protein	(but not at Ser-89)
recombinant PKCtheta	PKCalpha, delta and theta (but not PKCzeta or PKA) were able to phosphorylate recombinant NR2F6 in vitro	This phosphorylation was lost after the predicted phosphorylation site at Ser-83 (but not at Ser-89) was mutated in the full-length NR2F6 protein	(but not at Ser-89)
Protein kinase A (PKA)	(but not PKCzeta or PKA)		
